Laboratory results taken from patent publication US20080176263.

Assays:
[1] = system: TNO211 peptide (DABCYL-GABA-Pro-Gln-Gly-Leu-Glu(EDANS)-Ala-Lys-NH2)
[2] = system: RH substrate
[3] = system: Anaspec, Inc.'s FRET peptide XV (QXL520-y-Abu-Pro-Gln-Gly-Leu-Dab(5-FAM)-Ala-Lys-NH)
[4] = system: T1, Peptide #15 (Biotin-aAbu-Pro-Gln-Gly-Leu-Lys(5FAM)-Ala-Lys-NH2)
T1 sequence: PQGLKAK

[5] = system: Substrate AA

Chain of Recombinant active pure MMP-9 from Calbiochem (Cat# PF024; 83 kDa form) (chain, as listed by the source): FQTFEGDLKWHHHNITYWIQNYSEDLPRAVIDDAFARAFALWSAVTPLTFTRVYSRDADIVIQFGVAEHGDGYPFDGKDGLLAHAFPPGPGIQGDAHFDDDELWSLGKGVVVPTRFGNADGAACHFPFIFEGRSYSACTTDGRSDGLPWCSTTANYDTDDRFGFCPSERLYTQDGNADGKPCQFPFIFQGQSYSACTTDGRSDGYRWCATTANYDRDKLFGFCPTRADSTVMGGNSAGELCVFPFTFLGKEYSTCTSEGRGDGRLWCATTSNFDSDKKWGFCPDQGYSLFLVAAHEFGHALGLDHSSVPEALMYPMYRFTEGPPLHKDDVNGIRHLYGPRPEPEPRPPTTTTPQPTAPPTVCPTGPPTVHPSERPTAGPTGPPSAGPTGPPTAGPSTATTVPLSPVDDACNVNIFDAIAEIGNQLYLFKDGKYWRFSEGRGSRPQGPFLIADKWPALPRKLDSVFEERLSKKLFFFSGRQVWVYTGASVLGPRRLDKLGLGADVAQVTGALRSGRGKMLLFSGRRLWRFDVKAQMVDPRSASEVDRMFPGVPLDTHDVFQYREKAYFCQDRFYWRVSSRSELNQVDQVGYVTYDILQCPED
Chain of MMP-9 (chain, as listed by the source): as above

clostridial collagenase
protease activity (fluorescence from cleavage of substrate TNO211), relative to pronase [1]: 2±1%

trypsin
cleavage of the dye-labelled immobilized substrate (color generation) [2]: none of the enzyme preparations were successful in cleaving the RH substrate

MMP-9
protease activity (fluorescence from cleavage of substrate TNO211), relative to pronase [1]: 28±3%
substrate specificity in the fluorogenic cleavage assay [1]: The substrate exhibited greater specificity for MMP-9 within the initial 30 minutes of the assay

Recombinant active pure MMP-9 from Calbiochem (Cat# PF024; 83 kDa form)
time to a visible fluorescent signal from cleavage of the FRET peptide [3]: capable of generating a signal within 10 minutes for pure MMP-9 activity
visually detectable fluorescent signal in MMP-9 spiked fetal bovine serum [3]: the spiked FBS generated as slightly detectable signal by 10 min with the 5-FAM-based peptide and an easily detectable signal by 30 min

dispase
cleavage of the dye-labelled immobilized substrate (color generation) [2]: none of the enzyme preparations were successful in cleaving the RH substrate

pronase
fluorescence left after streptavidin agarose removal of uncleaved biotinylated peptide [4]: there was enough of a difference between the negative control and the other samples to stop at this point
cleavage of the dye-labelled immobilized substrate (color generation) [2]: none of the enzyme preparations were successful in cleaving the RH substrate
visible color from cleavage of the dye-labelled immobilized substrate [5]: AA substrate reacted with pronase and proteinase K did produce a visible color within 2.5 h at 37 °C Pronase generated the most noticeable color change
time to completion of the cleavage reaction at 1 ug/ml protease [1]: the pronase reaction reached completion within 13 minutes
visual detection limit of protease by fluorescence of cleaved substrate [1]: 125 ng pronase was detected within 10 minutes

elastase
cleavage of the dye-labelled immobilized substrate (color generation) [2]: none of the enzyme preparations were successful in cleaving the RH substrate
